Test results published in patent US20240002497A1 (Merck Sharp & Dohme, published 2024).
Like-named read-outs stand apart in the source and are kept apart here. One block for each binder: values may come before it.

Legend:
huNav1.7α [1] = target: T1, huNav1.7α (human, UniProt Q15858 1-1988); assay: binding FACS, HEKa cells
T1 construct: HEK cells expressing the α subunit alone; also called HEKa; HEK huNav1.7α
Experimental: Binding of the ISVDs to cell-expressed Nav1.7α was detected via murine anti-Flag (Sigma, catalog #F1804). Briefly, cells were resuspended in FACS buffer (PBS, 10% FBS, NaN₃) and transferred to a 96-well V-bottom plate at 1×10^5 cells/well. Purified FLAG3-tagged ISVD was diluted in FACS buffer and added to the cells for 30 minutes at 4° C. […] Prior to the read-out, the samples were resuspended in 1 μg/mL propidium iodide (Sigma, catalog #P4170) to exclude dead cells. Between each step, the cells were centrifuged for 5 minutes at 200 grams and washed with 100 μL/well FACS buffer.

huNav1.7α+β1 [2] = target: T2, huNav1.7α+β1 (human, UniProt Q15858 1-1988; Q07699 19-218); assay: binding FACS, HEKa/β1 cells
T2 construct: also called huNav1.7-beta1; HEKa/β1
Summary of the method: (§1)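 Flow cytometry read-out of anti-Flag signal on propidium iodide-negative cells measured ISVD binding. Purified FLAG3-tagged ISVD, diluted in PBS with 10% FBS and NaN₃, was applied to the cells for 30 minutes at 4° C.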

huNav1.7α+β1-β2-β3 = target: T3, huNav1.7α+β1-β2-β3 (human, UniProt Q15858 1-1988; Q07699 19-218; O60939 30-215; Q9NY72 23-215); assay: binding FACS, HEK FlpIn cells
T3 construct: 5N11S variant; also called huNav1.7-beta1-beta2-beta3; huNav1.7α+Navβ1-Navβ2-Navβ3

huNav1.7α+β1 [3] = target: T2, huNav1.7α+β1; assay: cell-based or functional assay
huNav1.7α [4] = target: T1, huNav1.7α; assay: cell-based or functional assay
rhNav1.7α+β1-β2-β3 [5] = target: T4, rhNav1.7α+β1-β2-β3 (rhesus monkey α subunit with human β …); assay: cell-based or functional assay
rhNav1.7α = rhNav1.7α (rhesus monkey, UniProt Q15858 1-1988 (human entry)); assay: cell-based or functional assay
rhNav1.7α+β1-β2-β3 [6] = target: T4, rhNav1.7α+β1-β2-β3; assay: binding FACS, CHO FlpIn cells
huNav1.7α [7] = target: T1, huNav1.7α; assay: binding FACS, HEKa cells; remark: listed apart in the source
huNav1.7α+β1 [8] = target: T2, huNav1.7α+β1; assay: binding FACS, HEKa/β1 cells; remark: listed apart in the source
[9] = target: T5, huNav1.7α + β1-β2-β3 (human Nav1.7α co-expressed with human Navβ1, Navβ2 and Navβ3 on cells) (human); assay: binding FACS, CHO FlpIn cells
T5 construct: also called huNav1.7-beta1-beta2-beta3; CHO FlpIn huNav1.7α + β1-β2-β3
Summary of the method: as §1

[10] = target: T6, rhNav1.7α + β1-β2-β3 (rhesus Nav1.7α co-expressed with Navβ1, Navβ2 and Navβ3 on cells) (rhesus monkey (α subunit); β subunits …); assay: binding FACS, CHO FlpIn cells
T6 construct: also called rhNav1.7-beta1-beta2-beta3; CHO FlpIn rhNav1.7α + β1-β2-β3
Summary of the method: as §1

[11] = target: T7, huNav1.7α on HEK cells (without β subunits) (human, UniProt Q15858 1-1988); assay: binding FACS, HEK cells (HEKa)
T7 construct: also called HEKa huNav1.7α

[12] = target: huNav1.7α + β1 on HEK cells (human, UniProt Q15858 1-1988; Q07699 19-218); assay: binding FACS, HEK cells (HEKa/b1)

B2: F010300536 (VHH)
VHH: EVQLVESGGGLVQPGGSLRLSCAASGMLFNANTQGWYRQAPGKQRELVAFIFSGGYTTYVDSVKGRFTISRDNAKRTMYLQMNSLKPEDSAIYYCSLSRYLGQGTLVTVSS
notes: vs F0103265A11: N58T
EC50 (huNav1.7α [1]): 660 nM
Bmax relative to '535 (huNav1.7α+β1 [2]): 77%
EC50 (huNav1.7α+β1 [2]): 9 nM
EC50 (huNav1.7α+β1-β2-β3): 27 nM

B4: F010300535 (VHH)
VHH: EVQLVESGGGLVQPGGSLRLSCAASGMLFNANTQGWYRQAPGKQRELVAFIFWGGYTNYVDSVKGRFTISRDNAKRTMYLQMNSLKPEDSAIYYCSLSRYLGQGTLVTVSS
notes: vs F0103265A11: S53W
EC50 (huNav1.7α [1]): 720 nM
Bmax relative to '535 (huNav1.7α+β1 [2]): 100%
EC50 (huNav1.7α+β1 [2]): 5.5 nM
EC50 (huNav1.7α+β1-β2-β3): 16 nM

B5: F010301458 (VHH)
VHH: EVQLVESGGGLVQPGGSLRLSCAASGMLFNRNTQGWYRQAPGKQRELVAFIFSGGWTNYNDSVKGRFTISRDNAKRTMYLQMNSLKPEDSAIYYCALSRYQGQGTLVTVSS
notes: vs F0103265A11: A31R, Y56W, V60N, S93A, L103Q
Bmax relative to '535 (huNav1.7α+β1 [2]): 120%
EC50 (huNav1.7α+β1 [2]): 2.2 nM
EC50 (huNav1.7α+β1-β2-β3): 4.1 nM

B6: F010300477 (VHH)
VHH: EVQLVESGGGLVQPGGSLRLSCAASGSIFNINSMAWYRRAPGKQRELVASSTNGGSTNYADSVKGRFTISRDNAKRVYLQMNSLTPEDTAVYYCNWLLQPSIYDISRTYWGQGTLVTVSS
notes: vs F0103275B05: A94W
single pulse IC50 (huNav1.7α+β1 [3]): 96 nM
2-pulse IC50 [M], P1 (huNav1.7α [4]): 2e-06 M
2-pulse IC50 [M], P2 (huNav1.7α [4]): 2e-06 M
single pulse IC50 (rhNav1.7α+β1-β2-β3 [5]): 1200 nM
2-pulse IC50 [M], P1 (rhNav1.7α): 3e-06 M
2-pulse IC50 [M], P2 (rhNav1.7α): 1e-06 M
EC50 (rhNav1.7α+β1-β2-β3 [6]): 170 nM

B7: F010300900 (VHH)
VHH: EVQLVESGGGLVQPGGSLRLSCAASGPVFNINRMAWYRRAPGKQRELVASSTPGGDTNYADSVKGRFTISRDNAKRVYLQMNSLTPEDTAVYYCRWLLQPSIYDISRIYWGQGTLVTVSS
notes: vs F0103275B05: S27P, I28V, S33R, N53P, S56D, N93R, A94W, T101I
single pulse IC50 (huNav1.7α+β1 [3]): 200 nM
single pulse IC50 (rhNav1.7α+β1-β2-β3 [5]): 36 nM
EC50 (huNav1.7α [7]): 20 nM
EC50 (huNav1.7α+β1 [8]): 70 nM
EC50 (rhNav1.7α+β1-β2-β3 [6]): 25 nM

The remaining lines, values ahead:

binding result (huNav1.7α [1]): no binding
Bmax relative to '535 (huNav1.7α+β1 [2]): 62%
EC50 (huNav1.7α+β1 [2]): 11 nM
EC50 (huNav1.7α+β1-β2-β3): 72 nM
B1: F010300534 (VHH)
VHH: EVQLVESGGGLVQPGGSLRLSCAASGMLFNANTQGWYRQAPGKQRELVAFIFSGGYVNYVDSVKGRFTISRDNAKRTMYLQMNSLKPEDSAIYYCSLSRYLGQGTLVTVSS
notes: vs F0103265A11: T57V

Bmax relative to '535 (huNav1.7α+β1 [2]): 120%
EC50 (huNav1.7α+β1 [2]): 2.5 nM
EC50 (huNav1.7α+β1-β2-β3): 4.3 nM
B3: F010301463 (VHH)
VHH: EVQLVESGGGLVQPGGSLRLSCAASGMLFNRNTQGWYRQAPGKQRELVAFIFSGGYTNYNDSVKGRFTISRDNAKRTMYLQMNSLKPEDSAIYYCALSRYQGQGTLVTVSS
notes: vs F0103265A11: A31R, V60N, S93A, L103Q

EC50 [9]: 61 nM
EC50 [10]: 24 nM
EC50 [11]: 24 nM
EC50 [12]: 38 nM
B8: F010301652 (VHH)
VHH: EVQLVESGGGVVQPGGSLRLSCAASGSIFNINRMAWYRRAPGKQRELVAYSTNGGDTNYADSVKGRFTISRDNAKNVYLQMNSLRPEDTALYYCRALLQPSIYDISRTYWGQGTLVTVSS
notes: also called F0103275B05(L11V, S33R, S50Y, S56D, R76N, T83R, V89L, N93R)
